Source: patent US11965039B2, “Compstatin analogues and their medical uses” (priority 2018, dated 2024)
Starred links: 1 amine or outer side, 2 acyl side, 3 side chain; linkers in the order of their positions; H or OH if unused. Positions of bridges follow the written chain, without caps; N, C: chain ends. Non-standard residues stand in square brackets, D forms with d. Groups on a side chain read outwards from the residue. *: point of attachment. X1 = K(γGlu-G-γGlu-17-carboxy-heptadecanoyl), O=C(O)CCCCCCCCCCCCCCCCC(=O)N[C@@H](CCC(=O)NCC(=O)N[C@@H](CCC(=O)NCCCC[C@H](N[*:1])C(=O)[*:2])C(=O)O)C(=O)O; Trp(1-Me) = Cn1cc(C[C@H](N)C(=O)O)c2ccccc21; C18 diacid = O=C(O)CCCCCCCCCCCCCCCCC(=O)*; γGlu = O=C(O)[C@H](CCC(=O)[*:2])N[*:1]; Sar = CNCC(=O)O

B1: Compound 134 (peptide)
peptide: Ac-EFCI[Trp(1-Me)]QDWGEHRCEGEK([γGlu-Gly-γGlu-C18 diacid])-NH2
modifications: disulfide 3-13
SMILES: CC[C@H](C)[C@@H]1NC(=O)[C@@H](NC(=O)[C@H](Cc2ccccc2)NC(=O)[C@H](CCC(=O)O)NC(C)=O)CSSC[C@@H](C(=O)N[C@@H](CCC(=O)O)C(=O)NCC(=O)N[C@@H](CCC(=O)O)C(=O)N[C@@H](CCCCNC(=O)CC[C@H](NC(=O)CNC(=O)CC[C@H](NC(=O)CCCCCCCCCCCCCCCCC(=O)O)C(=O)O)C(=O)O)C(N)=O)NC(=O)[C@H](CCCNC(=N)N)NC(=O)[C@H](Cc2c[nH]cn2)NC(=O)[C@H](CCC(=O)O)NC(=O)CNC(=O)[C@H](Cc2c[nH]c3ccccc23)NC(=O)[C@H](CC(=O)O)NC(=O)[C@H](CCC(N)=O)NC(=O)[C@H](Cc2cn(C)c3ccccc23)NC1=O
B2: Compound 132 (peptide)
peptide: Ac-SEFCI[Trp(1-Me)]QDWGEHRC[Sar]EK[γGlu]GGGK([γGlu-Gly-γGlu-C18 diacid])-NH2
modifications: disulfide 4-14
SMILES: CC[C@H](C)[C@@H]1NC(=O)[C@@H](NC(=O)[C@H](Cc2ccccc2)NC(=O)[C@H](CCC(=O)O)NC(=O)[C@H](CO)NC(C)=O)CSSC[C@@H](C(=O)N(C)CC(=O)N[C@@H](CCC(=O)O)C(=O)N[C@@H](CCCCN)C(=O)N[C@@H](CCC(=O)NCC(=O)NCC(=O)NCC(=O)N[C@@H](CCCCNC(=O)CC[C@H](NC(=O)CNC(=O)CC[C@H](NC(=O)CCCCCCCCCCCCCCCCC(=O)O)C(=O)O)C(=O)O)C(N)=O)C(=O)O)NC(=O)[C@H](CCCNC(=N)N)NC(=O)[C@H](Cc2c[nH]cn2)NC(=O)[C@H](CCC(=O)O)NC(=O)CNC(=O)[C@H](Cc2c[nH]c3ccccc23)NC(=O)[C@H](CC(=O)O)NC(=O)[C@H](CCC(N)=O)NC(=O)[C@H](Cc2cn(C)c3ccccc23)NC1=O
B3: Compound 135 (peptide)
peptide: Ac-SEFCI[Trp(1-Me)]QDWGEHRCTGAESK([γGlu-Gly-γGlu-15‑carboxy‑hexadecanoyl])-NH2
modifications: disulfide 4-14
B4: Compound 133 (peptide)
peptide: Ac-SEFCI[Trp(1-Me)]QDWGEHRCTEK[γGlu]GGGK([γGlu-Gly-γGlu-C18 diacid])-NH2
modifications: disulfide 4-14
SMILES: CC[C@H](C)[C@@H]1NC(=O)[C@@H](NC(=O)[C@H](Cc2ccccc2)NC(=O)[C@H](CCC(=O)O)NC(=O)[C@H](CO)NC(C)=O)CSSC[C@@H](C(=O)N[C@H](C(=O)N[C@@H](CCC(=O)O)C(=O)N[C@@H](CCCCN)C(=O)N[C@@H](CCC(=O)NCC(=O)NCC(=O)NCC(=O)N[C@@H](CCCCNC(=O)CC[C@H](NC(=O)CNC(=O)CC[C@H](NC(=O)CCCCCCCCCCCCCCCCC(=O)O)C(=O)O)C(=O)O)C(N)=O)C(=O)O)[C@@H](C)O)NC(=O)[C@H](CCCNC(=N)N)NC(=O)[C@H](Cc2c[nH]cn2)NC(=O)[C@H](CCC(=O)O)NC(=O)CNC(=O)[C@H](Cc2c[nH]c3ccccc23)NC(=O)[C@H](CC(=O)O)NC(=O)[C@H](CCC(N)=O)NC(=O)[C@H](Cc2cn(C)c3ccccc23)NC1=O
B5: Compound 8 (peptide)
peptide: Ac-ICIWQKWGAHRCTGAES-NH2
modifications: disulfide 2-12
SMILES: CC[C@H](C)[C@H](NC(C)=O)C(=O)N[C@H]1CSSC[C@@H](C(=O)N[C@H](C(=O)NCC(=O)N[C@@H](C)C(=O)N[C@@H](CCC(=O)O)C(=O)N[C@@H](CO)C(N)=O)[C@@H](C)O)NC(=O)[C@H](CCCNC(=N)N)NC(=O)[C@H](Cc2c[nH]cn2)NC(=O)[C@H](C)NC(=O)CNC(=O)[C@H](Cc2c[nH]c3ccccc23)NC(=O)[C@H](CCCCN)NC(=O)[C@H](CCC(N)=O)NC(=O)[C@H](Cc2c[nH]c3ccccc23)NC(=O)[C@H]([C@@H](C)CC)NC1=O
B6: Compound 136 (peptide)
peptide: Ac-SEFCI[Trp(1-Me)]QDWGEHRCTEGE-{8‑aminooctanoyl-X1-NH2}
modifications: disulfide 4-14

Molecular target: Human C3 (Complement tech cat #A113c) (human, UniProt P01024 23-1663)
Test: cell-based or functional assay

Human C3 (Complement tech cat #A113c), sequence (P01024 23-1663 limits assumed): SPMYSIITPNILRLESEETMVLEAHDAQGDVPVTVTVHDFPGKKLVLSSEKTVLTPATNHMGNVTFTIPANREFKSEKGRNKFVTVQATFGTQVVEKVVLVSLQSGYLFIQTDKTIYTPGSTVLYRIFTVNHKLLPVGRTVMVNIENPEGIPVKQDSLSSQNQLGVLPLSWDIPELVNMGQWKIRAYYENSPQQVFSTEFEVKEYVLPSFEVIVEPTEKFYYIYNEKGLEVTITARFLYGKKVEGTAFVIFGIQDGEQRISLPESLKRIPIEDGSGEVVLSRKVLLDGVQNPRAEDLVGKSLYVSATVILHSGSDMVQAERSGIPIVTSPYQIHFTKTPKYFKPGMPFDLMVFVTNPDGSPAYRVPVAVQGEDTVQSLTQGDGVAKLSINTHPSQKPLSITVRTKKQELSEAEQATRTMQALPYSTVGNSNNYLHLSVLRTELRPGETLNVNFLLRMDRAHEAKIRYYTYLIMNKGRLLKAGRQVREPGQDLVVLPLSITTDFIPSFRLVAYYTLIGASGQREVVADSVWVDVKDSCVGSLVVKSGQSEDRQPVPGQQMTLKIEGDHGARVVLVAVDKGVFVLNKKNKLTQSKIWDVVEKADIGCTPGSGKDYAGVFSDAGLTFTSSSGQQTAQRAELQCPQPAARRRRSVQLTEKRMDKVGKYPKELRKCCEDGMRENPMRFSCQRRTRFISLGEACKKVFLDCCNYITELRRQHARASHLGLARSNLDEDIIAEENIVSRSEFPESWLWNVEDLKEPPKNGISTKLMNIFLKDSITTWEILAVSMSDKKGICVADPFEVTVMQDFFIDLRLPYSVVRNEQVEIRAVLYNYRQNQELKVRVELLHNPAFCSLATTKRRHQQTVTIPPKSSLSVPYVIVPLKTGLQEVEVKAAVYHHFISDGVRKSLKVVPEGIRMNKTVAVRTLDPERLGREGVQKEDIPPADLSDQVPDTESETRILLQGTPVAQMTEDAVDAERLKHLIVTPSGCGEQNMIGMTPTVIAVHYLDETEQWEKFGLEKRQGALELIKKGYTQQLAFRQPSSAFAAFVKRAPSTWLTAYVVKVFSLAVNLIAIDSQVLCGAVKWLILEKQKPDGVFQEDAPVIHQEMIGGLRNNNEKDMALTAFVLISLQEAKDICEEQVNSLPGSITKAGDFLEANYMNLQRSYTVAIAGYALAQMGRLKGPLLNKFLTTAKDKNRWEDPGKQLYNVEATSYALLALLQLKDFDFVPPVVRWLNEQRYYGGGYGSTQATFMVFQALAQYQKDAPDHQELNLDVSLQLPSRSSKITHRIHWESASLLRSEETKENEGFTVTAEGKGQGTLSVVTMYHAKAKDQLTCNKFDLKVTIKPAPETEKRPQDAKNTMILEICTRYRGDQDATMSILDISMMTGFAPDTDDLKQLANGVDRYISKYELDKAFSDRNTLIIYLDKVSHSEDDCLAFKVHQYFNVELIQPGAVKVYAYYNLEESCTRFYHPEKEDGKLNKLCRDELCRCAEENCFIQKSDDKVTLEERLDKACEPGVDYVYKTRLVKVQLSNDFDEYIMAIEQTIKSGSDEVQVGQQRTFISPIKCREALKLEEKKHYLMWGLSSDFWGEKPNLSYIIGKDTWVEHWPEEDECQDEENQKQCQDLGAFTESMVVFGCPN

Binder	inhibition of hemolysis IC50 [nM]
B1	< 100
B2	< 100
B3	< 100
B4	< 100
B5	< 500
B6	< 100
